Test results: PMC3984155

Legend:
[1] = target: Litopenaeus vannamei Proliferating Cell Nuclear Antigen (Litopenaeus vannamei); assay: SEC; purified LvPCNA at 1 mg/ml on a Superdex 200 column, elution compared with known molecular-mass standards
[2] = target: Litopenaeus vannamei Proliferating Cell Nuclear Antigen (Litopenaeus vannamei); assay: crystal structure; X-ray, 3 Å, space group C2; crystals from 300 mM CaCl2, 100 mM sodium HEPES pH 7.5, 30% v/v PEG 400; molecular replacement

Substance: Litopenaeus vannamei Proliferating Cell Nuclear Antigen (natural protein)
- stoichiometry N [1]: 3
- stoichiometry N [2]: 3
